Test system: inguinal fat
Experiment: Irisin injection in mice: Ucp1/Dio2 mRNA and Ucp1 protein in inguinal fat
Format: in vivo
Experimental: FIG. 18A-FIG. 18B show mRNA and protein levels of indicated genes. 1 mg/kg irisin was injected to 8-week old mice every other day for 6 days. mRNA levels of indicated genes in inguinal fat were analyzed by qRT-PCR. Cyclophilin was used for housekeeping gene (FIG. 18A). Inguinal fats were also lysed to detect the indicated protein level using immunoblot analysis (FIG. 18B). FIGS. 18C and 18D show mRNA and protein levels of indicated genes. Mice were treated and analyzed as (A-B) with addition of coinjection of […] control RGD peptide or cyclo RGDyK (cRGDyK). mRNA levels of indicated genes in inguinal fat were analyzed by qRT-PCR. Cyclophilin was used for house-keeping gene (FIG. 18C). Inguinal fats were also lysed to detect the indicated protein level using immunoblot analysis (FIG. 18D). […] Ucp1 mRNA level was analyzed by qRT-PCR. […]
RNA was extracted from cultured cells or frozen tissues using TRIzol® (Thermo Fischer Scientific) and purified with RNeasy® mini kit (QIAGEN 74106). […] To perform qRT-PCR analysis, normalized RNA was reverse transcribed using a high-capacity cDNA reverse-transcription kit (Applied Biosystems™). cDNA was analyzed by qRT-PCR with indicated primers. Relative mRNA levels were calculated using the comparative CT method and normalized to cyclophilin mRNA. […]

B1: irisin: secreted cleaved form of FNDC5; recombinant human/mouse irisin with C-terminal his tag produced in HEK293 cells (protein)
chain: DSPSAPVNVTVRHLKANSAVVSWDVLEDEVVIGFAISQQKKDVRMLRFIQEVNTTTRSCALWDLEEDTEYIVHVQAISIQGQSPASEPVLFKTPREAEKMASKNKDEVTMKE
modifications: left off: small tags and cut ends
notes: secreted cleaved form of FNDC5; recombinant human/mouse irisin with C-terminal his tag produced in HEK293 cells
- Ucp1 protein level in whole tissue (western blot) (mice, irisin injections): also increased
- increase of mRNA level of Ucp1 (wild-type mice, 1 mg/kg irisin every other day for 6 days): more than 2 fold

Reference: patent US20210063414A1, “METHODS FOR PREVENTING AND/OR TREATING BONE LOSS CONDITIONS BY MODULATING IRISIN” (Dana-Farber Cancer Institute, Inc., priority 2018, published 2021)
